# Source: US20250197488A1 (MABWELL SHANGHAI BIOSCIENCE, published 2025)
# T1: human IL-11Rα, full length, stably expressed on STAT3-Luc HEK293 cells (human, UniProt Q14626 23-422)
# T1 sequence (looked up): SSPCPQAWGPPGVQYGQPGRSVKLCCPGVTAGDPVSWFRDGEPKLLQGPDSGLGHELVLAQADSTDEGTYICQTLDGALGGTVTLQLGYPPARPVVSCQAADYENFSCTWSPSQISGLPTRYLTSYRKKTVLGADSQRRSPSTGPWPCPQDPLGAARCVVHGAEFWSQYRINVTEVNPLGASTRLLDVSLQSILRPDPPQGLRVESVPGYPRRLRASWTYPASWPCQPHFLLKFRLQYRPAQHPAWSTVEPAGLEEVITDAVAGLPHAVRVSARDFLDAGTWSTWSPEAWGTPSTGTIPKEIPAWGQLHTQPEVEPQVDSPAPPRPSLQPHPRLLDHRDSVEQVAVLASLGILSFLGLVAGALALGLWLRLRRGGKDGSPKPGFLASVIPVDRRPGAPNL
# Target: T1, human IL-11Rα, full length, stably …
# Assay: cell-based or functional assay
binder,measurement,value
"IL-11 (Cat. 12225-HNCE, Sino Biological Inc.) (ligand, UniProt P20809 22-199, looked up) PGPPPGPPRVSPDPRAELDSTVLLTRSLLADTRQLAAQLRDKFPADGDHNLDSLPTLAMSAGALGALQLPGVLTRLRADLLSYLRHVQWLRRAGGSSLKTLEPELGTLQARLDRLLRRLQLLMSRLALPQPPPDPPAPPLAPPSSAWGGIRAAHAILGGLHLTLDWAVRGLLLLKTRL",EC50 of IL-11 in stimulating the transcriptional expression of STAT3-luc reporter gene,0.11 ng/mL
